Substitutions are numbered along the chain they refer to.

In data set [1] the target is T1, DNA ligase (Lig);PCNA1-PCNA2-PCNA3 heterotrimer (S. solfataricus;S. solfataricus, UniProt Q980T8;P57766;Q97Z84;P57765 1-601;1-249;1-245;1-244, |).
T1 sequence 1: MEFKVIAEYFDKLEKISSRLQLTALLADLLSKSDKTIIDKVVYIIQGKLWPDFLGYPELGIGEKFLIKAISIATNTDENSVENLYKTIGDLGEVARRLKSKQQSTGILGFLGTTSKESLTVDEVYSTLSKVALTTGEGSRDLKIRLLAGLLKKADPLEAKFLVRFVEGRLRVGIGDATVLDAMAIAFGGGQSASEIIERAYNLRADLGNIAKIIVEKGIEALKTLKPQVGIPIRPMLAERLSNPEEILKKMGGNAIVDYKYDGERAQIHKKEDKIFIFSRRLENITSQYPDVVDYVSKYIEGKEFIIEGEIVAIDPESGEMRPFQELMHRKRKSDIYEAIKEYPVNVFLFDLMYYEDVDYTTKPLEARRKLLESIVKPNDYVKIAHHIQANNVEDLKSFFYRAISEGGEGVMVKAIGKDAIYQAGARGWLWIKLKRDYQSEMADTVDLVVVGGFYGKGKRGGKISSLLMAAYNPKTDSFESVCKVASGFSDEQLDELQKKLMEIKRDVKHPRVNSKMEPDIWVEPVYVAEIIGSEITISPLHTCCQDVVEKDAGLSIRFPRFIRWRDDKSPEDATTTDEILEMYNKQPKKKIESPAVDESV
T1 sequence 2: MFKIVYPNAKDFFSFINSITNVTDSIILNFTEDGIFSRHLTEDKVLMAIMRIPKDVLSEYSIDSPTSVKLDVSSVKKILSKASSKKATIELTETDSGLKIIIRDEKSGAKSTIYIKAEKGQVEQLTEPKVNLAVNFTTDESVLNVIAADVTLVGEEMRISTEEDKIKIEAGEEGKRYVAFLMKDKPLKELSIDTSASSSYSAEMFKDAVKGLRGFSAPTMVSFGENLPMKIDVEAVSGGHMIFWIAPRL
T1 sequence 3: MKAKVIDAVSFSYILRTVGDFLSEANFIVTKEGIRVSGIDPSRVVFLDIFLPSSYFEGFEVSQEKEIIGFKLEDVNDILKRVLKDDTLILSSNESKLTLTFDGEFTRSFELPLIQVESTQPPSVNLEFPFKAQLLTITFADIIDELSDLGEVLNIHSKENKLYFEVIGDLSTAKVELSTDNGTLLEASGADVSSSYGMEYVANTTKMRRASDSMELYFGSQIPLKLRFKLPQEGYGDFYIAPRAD
T1 sequence 4: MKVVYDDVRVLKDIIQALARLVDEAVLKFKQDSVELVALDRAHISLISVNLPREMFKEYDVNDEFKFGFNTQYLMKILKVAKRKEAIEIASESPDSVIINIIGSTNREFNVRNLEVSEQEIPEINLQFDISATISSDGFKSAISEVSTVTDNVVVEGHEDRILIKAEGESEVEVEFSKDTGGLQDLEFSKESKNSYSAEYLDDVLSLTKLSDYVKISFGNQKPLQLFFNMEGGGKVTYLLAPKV
In words: cryo-EM.

Data set [2] addresses T1, DNA ligase (Lig);PCNA1-PCNA2-PCNA3 …. The data set is described as follows: cryo-EM. This is another data set of the same source.
Data set [3] has the same target. In words: cryo-EM. This is another data set of the same source.
Data set [4] shares this target. In words: gel filtration co-elution. In general terms: Size exclusion chromatography separates by hydrodynamic size, large species first.
Data set [5] concerns the target T2, PCNA_(1–2-3) heterotrimer of S. solfataricus (S. solfataricus, UniProt P57766 1-249; Q97Z84 1-245; P57765 1-244).
T2 sequence 1: T1 sequence 2
T2 sequence 2: T1 sequence 3
T2 sequence 3: T1 sequence 4
In words: SEC.

B1: 47 bp 3'dideoxy nicked DNA (dsDNA)
DNA 1: GTATCCTCGTAGTGCAGATGCGTC
DNA 2: GTCGGACTGATTCGGTAGATCTG
DNA 3: CAGATCTACCGAATCAGTCCGACGACGCATCTGCACTACGAGGATAC
modifications: 3'-dideoxy terminus of upstream strand; 5'PO4 on downstream strand
For B1, the binding result in data set [1] is recorded as “binds”.

B2: 47 bp end-joined duplex DNA (dsDNA)
DNA 1: GTATCCTCGTAGTGCAGATGCGTCGTCGGACTGATTCGGTAGATCTG
DNA 2: B1 DNA 3
In the case of B2, the binding result in data set [2] is “binds”.

B3: 47 bp nicked DNA, 5'-adenylated (AppDNA) (dsDNA)
DNA 1: GTATCCTCGTAGTGCAGATGCGTC
DNA 2: GTCGGACTGATTCGGTAGATCTG
DNA 3: B1 DNA 3
modifications: 5'-App (adenylated 5'PO4) on downstream strand; 3'OH at nick
Take B3: the binding result in data set [3] was “binds”.

B4: 47 bp ligatable nicked DNA (dsDNA)
DNA 1: GTATCCTCGTAGTGCAGATGCGTC
DNA 2: GTCGGACTGATTCGGTAGATCTG
DNA 3: B1 DNA 3
modifications: 5'PO4 on downstream strand; 3'OH at nick
In the case of B4, the binding result in data set [4] is given as “binds”.

B5: Lig 103/107 QI-AA mutant (enzyme, S. solfataricus)
chain: T1 sequence 1 with Q103A, I107A
For the molecule B5, the binding result in data set [5] was “binds”.

(Values after article PMC8897274 (Structure (London, England : 1993), 2021).)
